US20020058247A1 (TRIPEP, published 2002)

Columns and labels:
[1] = molecular target: T1, truncated recombinant form of HBeAg containing nine residues of pre-core and the 150 first residues of HBcAg (hepatitis B virus, UniProt P03146 1-150); assay: EIA, HBeAg on solid phase, fusion peptide 20 ug/well, gG2 mAb detection
T1 construct: domain: nine residues of pre-core;range 1-150; also called hepatitis B virus e antigen

[2] = molecular target: T2, non-structural 3 protein (NS3) of the hepatitis C virus (HCV) (hepatitis C virus); assay: EIA, support-bound peptide, HCV NS3 control
T2 construct: Control antigen; also called HCV NS3

[3] = molecular target: T3, Full length recombinant HBcAg (rHBcAg) encompassing residues 1-183 (hepatitis B virus, UniProt P03146 1-183); assay: competition EIA, HBcAg coated 5 ug/ml, peptide 6.25 ug/ml together with mAb 4-2 (competitor); OD of bound mAb
T3 construct: range 1-183; also called hepatitis B virus core antigen

[4] = molecular target: T3, Full length recombinant HBcAg (rHBcAg) …; assay: competition EIA, HBcAg coated 1 ug/ml, peptide 50 ug/ml before mAb 4-2 (competitor); OD of bound mAb
[5] = molecular target: T3, Full length recombinant HBcAg (rHBcAg) …; assay: competition EIA, HBcAg coated 5 ug/ml, peptide 12.5 ug/ml together with mAb 4-2 (competitor); OD of bound mAb
[6] = molecular target: T3, Full length recombinant HBcAg (rHBcAg) …; assay: EIA, support-bound peptide, HBcAg 2 ug/well
[7] = molecular target: T3, Full length recombinant HBcAg (rHBcAg) …; assay: competition EIA, HBcAg coated 5 ug/ml, peptide 25 ug/ml together with mAb 4-2 (competitor); OD of bound mAb
[8] = molecular target: T3, Full length recombinant HBcAg (rHBcAg) …; assay: competition EIA, HBcAg coated 1 ug/ml, peptide 12.5 ug/ml before mAb 4-2 (competitor); OD of bound mAb
[9] = molecular target: T3, Full length recombinant HBcAg (rHBcAg) …; assay: competition EIA, HBcAg coated 1 ug/ml, peptide 6.25 ug/ml before mAb 4-2 (competitor); OD of bound mAb
[10] = molecular target: T3, Full length recombinant HBcAg (rHBcAg) …; assay: competition EIA, HBcAg coated 5 ug/ml, peptide 50 ug/ml together with mAb 4-2 (competitor); OD of bound mAb
[11] = molecular target: T3, Full length recombinant HBcAg (rHBcAg) …; assay: competition EIA, HBcAg coated 5 ug/ml, peptide 200 ug/ml together with mAb 4-2 (competitor); OD of bound mAb
[12] = molecular target: T3, Full length recombinant HBcAg (rHBcAg) …; assay: competition EIA, HBcAg coated 1 ug/ml, peptide 25 ug/ml before mAb 4-2 (competitor); OD of bound mAb
[13] = molecular target: T3, Full length recombinant HBcAg (rHBcAg) …; assay: competition EIA, HBcAg coated 1 ug/ml, peptide 100 ug/ml before mAb 4-2 (competitor); OD of bound mAb
[14] = molecular target: T3, Full length recombinant HBcAg (rHBcAg) …; assay: competition EIA, HBcAg coated 1 ug/ml, peptide 200 ug/ml before mAb 4-2 (competitor); OD of bound mAb
[15] = molecular target: T3, Full length recombinant HBcAg (rHBcAg) …; assay: competition EIA, HBcAg coated 5 ug/ml, peptide 100 ug/ml together with mAb 4-2 (competitor); OD of bound mAb
[16] = molecular target: T3, Full length recombinant HBcAg (rHBcAg) …; assay: EIA, support-bound peptide, HBcAg 0.2 ug/well
[17] = molecular target: serum HBeAg in HBeAg-transgenic mice (hepatitis B virus); assay: cell-based or functional assay
[18] = molecular target: T1, truncated recombinant form of HBeAg …; assay: EIA, support-bound peptide, HBeAg 10 ug/ml
[19] = molecular target: T3, Full length recombinant HBcAg (rHBcAg) …; assay: EIA, support-bound peptide, HBcAg 5 ug/ml
[20] = molecular target: T1, truncated recombinant form of HBeAg …; assay: EIA, support-bound peptide, HBeAg 2.5 ug/ml
[21] = molecular target: T3, Full length recombinant HBcAg (rHBcAg) …; assay: EIA, peptide coated 3.125 ug/ml, HBcAg 10 ug/ml
[22] = molecular target: T3, Full length recombinant HBcAg (rHBcAg) …; assay: EIA, peptide coated 6.25 ug/ml, HBcAg 10 ug/ml
[23] = molecular target: T3, Full length recombinant HBcAg (rHBcAg) …; assay: EIA, support-bound peptide, HBcAg 1.25 ug/ml
[24] = molecular target: T3, Full length recombinant HBcAg (rHBcAg) …; assay: EIA, peptide coated 50 ug/ml, HBcAg 10 ug/ml
[25] = molecular target: T3, Full length recombinant HBcAg (rHBcAg) …; assay: EIA, support-bound peptide, HBcAg 2.5 ug/ml
[26] = molecular target: T3, Full length recombinant HBcAg (rHBcAg) …; assay: EIA, support-bound peptide, HBcAg 20 ug/ml
[27] = molecular target: T1, truncated recombinant form of HBeAg …; assay: EIA, support-bound peptide, HBeAg 5 ug/ml
[28] = molecular target: T3, Full length recombinant HBcAg (rHBcAg) …; assay: EIA, peptide coated 25 ug/ml, HBcAg 10 ug/ml
[29] = molecular target: T3, Full length recombinant HBcAg (rHBcAg) …; assay: EIA, peptide coated 100 ug/ml, HBcAg 10 ug/ml
[30] = molecular target: T3, Full length recombinant HBcAg (rHBcAg) …; assay: EIA, peptide coated 12.5 ug/ml, HBcAg 10 ug/ml
[31] = molecular target: T1, truncated recombinant form of HBeAg …; assay: EIA, support-bound peptide, HBeAg 1.25 ug/ml
[32] = molecular target: T1, truncated recombinant form of HBeAg …; assay: EIA, support-bound peptide, HBeAg 20 ug/ml
[33] = molecular target: T3, Full length recombinant HBcAg (rHBcAg) …; assay: EIA, support-bound peptide, HBcAg 10 ug/ml
[34] = molecular target: T3, Full length recombinant HBcAg (rHBcAg) …; assay: EIA, support-bound peptide, HBcAg 0.67 ug/ml
[35] = molecular target: T1, truncated recombinant form of HBeAg …; assay: EIA, support-bound peptide, HBeAg 0.67 ug/ml

T3 sequence (P03146 whole entry, the tested form may be a part): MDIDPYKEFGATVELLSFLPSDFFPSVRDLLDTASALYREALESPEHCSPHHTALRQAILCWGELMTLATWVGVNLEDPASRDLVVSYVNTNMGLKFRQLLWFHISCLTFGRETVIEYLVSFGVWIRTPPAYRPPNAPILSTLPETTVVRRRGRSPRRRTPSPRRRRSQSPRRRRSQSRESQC
T1 sequence (P03146 1-150): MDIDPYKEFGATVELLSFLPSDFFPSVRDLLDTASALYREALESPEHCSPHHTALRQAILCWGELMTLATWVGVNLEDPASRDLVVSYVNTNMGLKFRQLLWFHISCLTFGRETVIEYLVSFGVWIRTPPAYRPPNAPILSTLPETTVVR
Sequence of serum HBeAg in HBeAg-transgenic mice (hepatitis B virus) (P0C573 20-183): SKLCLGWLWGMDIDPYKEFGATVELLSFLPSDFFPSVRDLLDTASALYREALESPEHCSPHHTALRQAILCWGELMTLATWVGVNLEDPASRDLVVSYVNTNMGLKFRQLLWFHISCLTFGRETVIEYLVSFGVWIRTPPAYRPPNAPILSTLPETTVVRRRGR

KLSCKASGYIFTSHRGGPEEF (also called fusion peptide) [KLSCKASGYIFTSHRGGPEEF (SEQ. ID. No. 71)] was tested, and the “gG2 mAb binding (OD)” value [1] was 0.638 OD.

With VKLSCKASGYIFTSEHRGGPE (also called fusion peptide) [VKLSCKASGYIFTSEHRGGPE (SEQ. ID. No. 73)] the “gG2 mAb binding (OD)” value [1] was 0.029 OD.

In the case of QQKPGQPPKLLIKYASNLES [QQKPGQPPKLLIKYASNLES (SEQ. ID. No. 19)], the “OD at 405 nm” value [2] is reported as 0.016 OD, the “OD at 490 nm” value [3] is reported as 1.06 OD and the “OD at 490 nm” value [4] is reported as 0.383 OD. For the same binder, the “OD at 490 nm” value [5] was 1.24 OD, the “OD at 405 nm” value [6] was 0.299 OD and the “OD at 490 nm” value [7] was 1.24 OD. For the same binder, the “OD at 490 nm” value [8] was 0.391 OD, the “OD at 490 nm” value [9] was 0.336 OD and the “OD at 490 nm” value [10] was 1.23 OD. The “OD at 490 nm” value [11] was 0.925 OD, the “OD at 490 nm” value [12] was 0.406 OD and the “OD at 490 nm” value [13] was 0.394 OD. For the same binder, the “OD at 490 nm” value [14] was 0.368 OD, the “OD at 490 nm” value [15] was 1.11 OD and the “OD at 405 nm” value [16] was 0.064 OD.

VKLSCKASGYIFTSHRGGPEE [VKLSCKASGYIFTSHRGGPEE (SEQ. ID. No. 74)] was tested, and the “Fold change in serum HBeAg levels by EIA in HBeAg-Tg mice, day 0” value [17] was 1 fold, the “Fold change in serum HBeAg levels by EIA in HBeAg-Tg mice, day 1” value [17] was 1.5 fold and the “Fold change in serum HBeAg levels by EIA in HBeAg-Tg mice, day 3” value [17] was 2.3 fold. The “Fold change in serum HBeAg levels by EIA in HBeAg-Tg mice, day 6” value [17] was 2.3 fold, the “Fold change in serum HBeAg levels by EIA in HBeAg-Tg mice, day 9” value [17] was 3.3 fold and the “gG2 mAb binding (OD)” value [1] was 1.73 OD.

In the case of YNMNWVKQSHGKSLEWIGNI (also called Peptide # 27) [YNMNWVKQSHGKSLEWIGNI (SEQ. ID. No. 30)], the “OD at 405 nm” value [2] is reported as 0.021 OD, the OD [18] is reported as 0.037 OD and the OD [19] is reported as 0.059 OD. For the same binder, the “OD at 405 nm” value [6] was 0.157 OD, the OD [20] was 0.032 OD and the OD [21] was 0.168 OD. It also gave an OD [22] of 0.175 OD, an OD [23] of 0.026 OD and an OD [24] of 0.17 OD. The OD [25] was 0.042 OD, the OD [26] was 0.305 OD and the OD [27] was 0.029 OD. For the same binder, the OD [28] was 0.162 OD, the OD [29] was 0.151 OD and the OD [30] was 0.181 OD. It also gave an OD [31] of 0.021 OD, an OD [32] of 0.04 OD and an OD [33] of 0.115 OD. For the same binder, the “OD at 405 nm” value [16] was 0.114 OD, the OD [34] was 0.02 OD and the OD [35] was 0.018 OD.

KLSCKASGYIFTSRGGPEEFE (also called fusion peptide) [KLSCKASGYIFTSRGGPEEFE (SEQ. ID. No. 72)] was tested, and the “gG2 mAb binding (OD)” value [1] was 0.04 OD.

In the case of VKLSCKASGYIFTSGGPEEFE (also called fusion peptide) [VKLSCKASGYIFTSGGPEEFE (SEQ. ID. No. 76)], the “gG2 mAb binding (OD)” value [1] is reported as 0.024 OD.

For KLSCKASGYIFTSEHRGGPEE (also called fusion peptide) [KLSCKASGYIFTSEHRGGPEE (SEQ. ID. No. 70)], the “gG2 mAb binding (OD)” value [1] was 0.022 OD.
